Experimental data as given in patent US20220402985A1.
Positions count from the first letter of the chain named. Names and notes keep the numbering of the source. Values joined by “and” are separate entries in the source; they are usually repeats but may differ in a detail not shown here. Identical values can stand only once.

B1: huNRG1(S177-F229) 6xHis (ligand)
chain: SHLVKCAEKEKTFCVNGGECFMVKDLSNPSRYLCKCPNEFTGDRCQNYVMASFGGGGEGGGGAGGGGHHHHHH
B2: huNRG1(S177-Q237)(NRGE1P)::GG::huFcSEFL2 (Pb) (Fc fusion)
chain: SHLVKCAESHKSFCVNGGECFMIEGPSNPSRYLCKCPNEFTGDRCQDFFMASFYKAEELYQGGDKTHTCPPCPAPELLGGPSVFLFPPKPKDTLMISRTPEVTCVVVDVSHEDPEVKFNWYVDGVEVHNAKTKPCEEQYGSTYRCVSVLTVLHQDWLNGKEYKCKVSNKALPAPIEKTISKAKGQPREPQVYTLPPSREEMTKNQVSLTCLVKGFYPSDIAVEWESNGQPENNYKTTPPVLDSDGSFFLYSKLTVDKSRWQQGNVFSCSVMHEALHNHYTQKSLSLSPGK
B3: huNRG1(S177-Q237)(2E4)::GG::huFcSEFL2 (Pb) (Fc fusion)
chain: B2 chain with A7G, H10D, I23V, E24K, G25R, D47K, F48V, M50L
B4: huNRG1(S177-Q237)(1A12)::GG::huFcSEFL2 (Pb) (Fc fusion)
chain: B2 chain with S9K, F21Y, M22V, I23V, G25R, N28I, D47K
B5: huNRG1(S177-Q237)(2E3)::GG::huFcSEFL2 (Pb) (Fc fusion)
chain: B2 chain with A7G, S9K, H10E, F21Y, P26L, N28I, Y32F, F48V
B6: huNRG1(S177-Q237)(1D10)::GG::huFcSEFL2 (Pb) (Fc fusion)
chain: B2 chain with S9R, H10D, S12T, F21Y, G25D, P26L, N28I, D47K, F48D
B7: huNRG1(S177-Q237)(1A7)::GG::huFcSEFL2 (Pb) (Fc fusion)
chain: B2 chain with S9R, H10D, F21Y, M22V, G25H, P26L, Y32F, D47K, F48D
B8: huNRG1(S177-Q237)(1D3)::GG::huFcSEFL2 (Pb) (Fc fusion)
chain: B2 chain with A7G, S9N, H10D, M22V, G25D, N28I, D47N, F48D, M50L
B9: huNRG1(S177-Q237)(1C11)::GG::huFcSEFL2 (Pb) (Fc fusion)
chain: B2 chain with A7G, S9K, H10E, S12T, F21Y, I23V, G25R, N28I, Y32F, D47K
B10: huNRG1(S177-Q237)(3D6)::GG::huFcSEFL2 (Pb) (Fc fusion)
chain: B2 chain with A7G, H10D, M22V, P26S, N28I, Y32F
B11: huNRG1(S177-Q237)(1B4)::GG::huFcSEFL2 (Pb) (Fc fusion)
chain: B2 chain with A7G, S9R, H10D, S12T, G25D, P26S, D47K, F48D
B12: huNRG1(S177-Q237)(2F2)::GG::huFcSEFL2 (Pb) (Fc fusion)
chain: B2 chain with H10E, S12T, F21Y, G25H, Y32F, D47N, F48V
B13: huNRG1(S177-Q237)(2G4)::GG::huFcSEFL2 (Pb) (Fc fusion)
chain: B2 chain with S9N, H10E, S12T, M22V, I23V, P26L, N28I, F48V
B14: huNRG1(S177-Q237)(3B8)::GG::huFcSEFL2 (Pb) (Fc fusion)
chain: B2 chain with A7G, S9R, H10D, I23V, G25R, P26S, N28I, M50L
B15: huNRG1(S177-Q237)(2G3)::GG::huFcSEFL2 (Pb) (Fc fusion)
chain: B2 chain with A7G, S9R, H10Q, F21Y, I23V, G25D, P26L, N28I, D47K, F48V
B16: huNRG1(S177-Q237)(1B9)::GG::huFcSEFL2 (Pb) (Fc fusion)
chain: B2 chain with S9K, I23V, G25D, P26L, N28I, F48V
B17: huNRG1(S177-Q237)(3A7)::GG::huFcSEFL2 (Pb) (Fc fusion)
chain: B2 chain with S9K, H10E, M22V, P26S, N28I, Y32F, D47K, F48V, F49V
B18: huNRG1(S177-F229)(NRGE1D)::1KmodT482V, M493L)::huFcSEFL2 (Pb) (Fc fusion)
chain: SHLVKCGESHKSFCVNGGECYMVEGSSIPSRYLCKCPNEFTGDRCQEDFMASFGSGSATGGSGSVASSGSGSATHLDKTHTCPPCPAPELLGGPSVFLFPPKPKDTLMISRTPEVTCVVVDVSHEDPEVKFNWYVDGVEVHNAKTKPCEEQYGSTYRCVSVLTVLHQDWLNGKEYKCKVSNKALPAPIEKTISKAKGQPREPQVYTLPPSREEMTKNQVSLTCLVKGFYPSDIAVEWESNGQPENNYKTTPPVLDSDGSFFLYSKLTVDKSRWQQGNVFSCSVMHEALHNHYTQKSLSLSPGK
B19: huNRG1(S177-Q237)(1A1)::GG::huFcSEFL2 (Pb) (Fc fusion)
chain: SHLVKCGESEKSFCVNGGECYVIEDSSIPSRFLCKCPNEFTGDRCQNVFLASFYKAEELYQGGDKTHTCPPCPAPELLGGPSVFLFPPKPKDTLMISRTPEVTCVVVDVSHEDPEVKFNWYVDGVEVHNAKTKPCEEQYGSTYRCVSVLTVLHQDWLNGKEYKCKVSNKALPAPIEKTISKAKGQPREPQVYTLPPSREEMTKNQVSLTCLVKGFYPSDIAVEWESNGQPENNYKTTPPVLDSDGSFFLYSKLTVDKSRWQQGNVFSCSVMHEALHNHYTQKSLSLSPGK
B20: huNRG1(S177-Q237)(2H7)::GG::huFcSEFL2 (Pb) (Fc fusion)
chain: B19 chain with S9K, I23V, S26L, N47K, F49V, L50M
B21: huNRG1(S177-F229)(NRGE1C) 6xHis (ligand)
chain: SHLVKCGEKHKSFCVNGGECFMIEGPSNPSRYLCKCPNEFTGDRCQEDFMASFGGGGEGGGGAGGGGHHHHHH
B22: huNRG1(S177-F229)(NRGE1D) (E47K_D48L_F49D_M50I) 6xHis (ligand)
chain: B21 chain with K9S, F21Y, I23V, P26S, N28I, E47K, D48L, F49D, M50I
B23: huNRG1(S177-F229)(NRGE1D) (E47T_D48S_F49L_M50L) 6xHis (ligand)
chain: B21 chain with K9S, F21Y, I23V, P26S, N28I, E47T, D48S, F49L, M50L
B24: huNRG1(S177-F229)(NRGE1D) (E47V_D48T_F49R_M50L) 6xHis (ligand)
chain: B21 chain with K9S, F21Y, I23V, P26S, N28I, E47V, D48T, F49R, M50L
B25: huNRG1(S177-F229)(NRGE1C) (D48T_F49Q_M50I) 6xHis (ligand)
chain: B21 chain with D48T, F49Q, M50I
B26: huNRG1(S177-F229)(NRGE1D) (E47S_D48S_F49E_M50L) 6xHis (ligand)
chain: B21 chain with K9S, F21Y, I23V, P26S, N28I, E47S, D48S, F49E, M50L
B27: huNRG1(S177-F229)(NRGE1C) (E47A_D48P_F49H_M50I) 6xHis (ligand)
chain: B21 chain with E47A, D48P, F49H, M50I
B28: huNRG1(S177-F229)(NRGE1C) (E47S_D48A_F49L_M50T) 6xHis (ligand)
chain: B21 chain with E47S, D48A, F49L, M50T
B29: huNRG1(S177-F229)(NRGE1C) (E47K_D48T_F49S_M50L) 6xHis (ligand)
chain: B21 chain with E47K, D48T, F49S, M50L
B30: huNRG1(S177-F229)(NRGE1C) (E47S_D48T_F49R_M50V) 6xHis (ligand)
chain: B21 chain with E47S, D48T, F49R, M50V
B31: huNRG1(S177-F229)(NRGE1D) 6xHis (ligand)
chain: B21 chain with K9S, F21Y, I23V, P26S, N28I

The binders below were run against ErbB3 on rat Schwann cells (rat) (UniProt Q62799) (assay: cell-based or functional assay).
ErbB3 on rat Schwann cells (rat), sequence (Q62799 20-1339): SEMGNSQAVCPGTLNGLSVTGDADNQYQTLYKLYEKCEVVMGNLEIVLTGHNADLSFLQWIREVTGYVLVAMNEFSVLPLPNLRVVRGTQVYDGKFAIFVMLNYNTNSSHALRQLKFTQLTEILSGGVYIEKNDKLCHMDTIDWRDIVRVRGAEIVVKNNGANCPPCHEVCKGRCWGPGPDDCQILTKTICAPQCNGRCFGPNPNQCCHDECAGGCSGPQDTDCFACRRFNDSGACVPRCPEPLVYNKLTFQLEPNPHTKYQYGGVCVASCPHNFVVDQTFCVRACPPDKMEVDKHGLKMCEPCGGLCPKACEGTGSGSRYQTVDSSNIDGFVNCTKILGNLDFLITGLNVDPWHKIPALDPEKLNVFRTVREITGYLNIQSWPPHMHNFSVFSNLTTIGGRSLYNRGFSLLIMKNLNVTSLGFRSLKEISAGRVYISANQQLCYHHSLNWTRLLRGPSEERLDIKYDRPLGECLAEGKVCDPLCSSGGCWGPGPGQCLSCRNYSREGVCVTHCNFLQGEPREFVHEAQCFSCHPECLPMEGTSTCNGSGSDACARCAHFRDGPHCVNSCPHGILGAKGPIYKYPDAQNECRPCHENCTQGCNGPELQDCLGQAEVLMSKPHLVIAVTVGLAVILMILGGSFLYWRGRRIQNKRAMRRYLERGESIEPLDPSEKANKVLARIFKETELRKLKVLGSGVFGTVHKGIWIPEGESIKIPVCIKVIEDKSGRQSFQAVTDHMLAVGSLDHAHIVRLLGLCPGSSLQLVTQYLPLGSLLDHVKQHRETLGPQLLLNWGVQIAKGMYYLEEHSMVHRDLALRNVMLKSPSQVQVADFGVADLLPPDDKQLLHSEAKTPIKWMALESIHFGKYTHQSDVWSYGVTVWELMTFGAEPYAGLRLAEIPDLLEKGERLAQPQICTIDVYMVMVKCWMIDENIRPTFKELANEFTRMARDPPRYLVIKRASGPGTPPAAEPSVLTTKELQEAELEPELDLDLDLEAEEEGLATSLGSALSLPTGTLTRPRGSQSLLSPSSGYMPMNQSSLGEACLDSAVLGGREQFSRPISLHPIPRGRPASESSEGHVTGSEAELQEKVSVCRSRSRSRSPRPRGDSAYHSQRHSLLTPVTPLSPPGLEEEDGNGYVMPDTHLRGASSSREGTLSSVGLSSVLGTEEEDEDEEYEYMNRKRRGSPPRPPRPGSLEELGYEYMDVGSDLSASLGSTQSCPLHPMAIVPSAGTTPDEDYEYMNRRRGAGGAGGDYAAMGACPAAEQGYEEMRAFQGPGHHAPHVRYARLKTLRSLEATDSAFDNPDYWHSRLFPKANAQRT

| Schwann cells (SC) (ErbB3) Avg EC50 | Binder |
| --- | --- |
| 3.62 nM | B1 |
| 510 nM | B2 |
| 61.5 nM | B3 |
| 47.9 nM | B4 |
| 1000 nM | B5 |
| > 3000 nM | B6 |
| 1000 nM | B7 |
| > 10000 nM and 10000 nM | B8 |
| 87 nM | B9 |
| > 10000 nM | B10 |
| 10000 nM | B11 |
| 202 nM | B12 |
| 1000 nM | B13 |
| 3000 nM | B14 |
| 60.8 nM | B15 |
| 1000 nM | B16 |

| Schwann cells (SC) (ErbB3) Avg EC50 | Binder |
| --- | --- |
| 46.5 nM | B17 |
| > 10000 nM | B18 |
| 9.11 nM | B19 |
| 110 nM | B20 |
| 10000 nM | B21 |
| 17.2 nM | B22 |
| 10000 nM | B23 |
| 10000 nM | B24 |
| 10000 nM | B25 |
| 10000 nM | B26 |
| 10000 nM | B27 |
| 10000 nM | B28 |
| 10000 nM | B29 |
| 10000 nM | B30 |
| 10000 nM | B31 |

What follows are binders tested against ErbB4 on neonatal rat cardiomyocytes (rat) (UniProt Q62956) (assay: cell-based or functional assay).
ErbB4 on neonatal rat cardiomyocytes (rat), sequence (Q62956 26-1308): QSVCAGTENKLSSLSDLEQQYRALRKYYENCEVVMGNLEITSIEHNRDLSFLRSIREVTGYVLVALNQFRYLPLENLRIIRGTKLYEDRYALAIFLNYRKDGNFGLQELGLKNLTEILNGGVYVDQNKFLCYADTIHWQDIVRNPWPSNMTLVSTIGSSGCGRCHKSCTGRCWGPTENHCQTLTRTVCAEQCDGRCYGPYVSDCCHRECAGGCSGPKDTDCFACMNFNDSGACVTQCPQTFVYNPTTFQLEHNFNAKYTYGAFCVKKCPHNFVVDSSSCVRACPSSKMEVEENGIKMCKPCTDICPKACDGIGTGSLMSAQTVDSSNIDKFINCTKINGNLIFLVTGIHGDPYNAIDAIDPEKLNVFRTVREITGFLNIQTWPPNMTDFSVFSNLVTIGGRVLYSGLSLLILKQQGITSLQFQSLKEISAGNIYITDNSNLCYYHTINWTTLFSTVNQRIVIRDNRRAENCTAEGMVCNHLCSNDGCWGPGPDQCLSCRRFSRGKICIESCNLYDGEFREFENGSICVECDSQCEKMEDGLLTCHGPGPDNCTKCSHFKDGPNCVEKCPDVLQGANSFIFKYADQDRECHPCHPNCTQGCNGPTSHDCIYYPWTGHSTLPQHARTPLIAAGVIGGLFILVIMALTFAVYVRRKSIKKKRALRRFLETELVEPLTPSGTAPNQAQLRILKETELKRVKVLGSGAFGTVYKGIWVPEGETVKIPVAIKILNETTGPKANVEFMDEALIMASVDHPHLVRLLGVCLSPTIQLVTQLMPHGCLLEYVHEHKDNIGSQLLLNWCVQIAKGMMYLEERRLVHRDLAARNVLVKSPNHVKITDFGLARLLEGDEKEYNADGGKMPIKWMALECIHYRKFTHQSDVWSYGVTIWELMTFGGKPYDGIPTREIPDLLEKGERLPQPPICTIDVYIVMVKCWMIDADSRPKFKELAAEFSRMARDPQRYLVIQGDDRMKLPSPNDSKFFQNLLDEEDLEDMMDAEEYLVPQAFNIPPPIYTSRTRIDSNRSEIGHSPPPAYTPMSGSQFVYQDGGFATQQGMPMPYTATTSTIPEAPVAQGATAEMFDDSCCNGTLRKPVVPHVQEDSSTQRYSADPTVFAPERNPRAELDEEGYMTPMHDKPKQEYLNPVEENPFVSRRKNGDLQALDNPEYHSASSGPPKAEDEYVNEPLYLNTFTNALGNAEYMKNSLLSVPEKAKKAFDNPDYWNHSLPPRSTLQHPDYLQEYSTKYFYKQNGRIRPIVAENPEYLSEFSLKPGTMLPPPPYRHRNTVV

| CM % Agonism AVG [%] | Cardiomyocyte (CM) (ErbB4) Avg EC50 | Selectivity SC/CM | Binder |
| --- | --- | --- | --- |
| 97.5 | 0.587 nM | 6.17 | B1 |
| 28 | 2.22 nM | 229 | B2 |
| – | 0.429 nM | 143 | B3 |
| – | 0.722 nM | 66 | B4 |
| < 50 | 0.658 nM | 1520 | B5 |
| – | 0.741 nM | > 4000 | B6 |
| – | 0.619 nM | 1620 | B7 |
| 78 | 1.62 nM and 0.772 nM | > 10000 | B8 |
| – | 1.1 nM | 79 | B9 |
| < 50 | 2.6 nM | > 3800 | B10 |
| – | 0.996 nM | > 10000 | B11 |
| – | 0.244 nM | 826 | B12 |
| < 50 | 2.42 nM | 414 | B13 |
| < 50 | 1.4 nM | 2150 | B14 |
| – | 0.208 nM | 292 | B15 |
| < 50 | 1.92 nM | 520 | B16 |

| CM % Agonism AVG [%] | Cardiomyocyte (CM) (ErbB4) Avg EC50 | Selectivity SC/CM | Binder |
| --- | --- | --- | --- |
| < 50 | 0.366 nM | 127 | B17 |
| 83.4 | 0.34 nM | > 10000 | B18 |
| – | 0.133 nM | 69 | B19 |
| < 50 | 0.3 nM | 368 | B20 |
| 106 | 1.44 nM | > 10000 | B21 |
| 91.7 | 0.311 nM | 55.4 | B22 |
| 99.8 | 0.33 nM | > 10000 | B23 |
| 98 | 0.224 nM | > 10000 | B24 |
| 106 | 0.712 nM | > 10000 | B25 |
| 96 | 0.557 nM | > 10000 | B26 |
| 96.5 | 1.1 nM | > 10000 | B27 |
| 85.9 | 0.695 nM | > 10000 | B28 |
| 91.8 | 0.825 nM | > 10000 | B29 |
| 87.5 | 0.58 nM | > 10000 | B30 |
| 90.7 | 0.39 nM | > 10000 | B31 |
